Measured values as given in the DeepSol protein solubility set.

Experiment: soluble on expression in E. coli; label from the status in PepcDB or PDB records

Row | Sequence | soluble on expression in E. coli
1 | MGSDKIHHHHHHMTQFWRDPTLPFVESRRATDSRACYRPHSHPTLSIGVVDRGQSQFQCQRRREWLTPGCLVSVPAGVVHDCNPLPDQPWSYQMLYLEPAWVSEVLDEASAETDAAPTLPSTVFIARDVAPYQAFCRLNALLFSSAPRADKEAGLIEFLGSRLWCHGDAMAVHWPNSSDLDDLQRHLLECLERPPSLEVLARDHGLSRYQVIRLFRRETGLTPHAWLLDRRIQQARRRLCQGVELAELAQELGFADQGHFQRAFKARVAATPGRYRST | not soluble
2 | KKSSMRKELETIQLLWHQQKGQYQLSKETIELINHKCHDLKHQVQAIRAVKDEKERETYLEKIEKSVQIYSAIVRTGNEILDTILTEKSLICENSGIHINCVADGSLLAFMNPVDLYTLFGNALDNAIEAVRKLESKEKRVIDIMLYERQSFLMLQIVNPMCGEVKFEDGLPLTTKAKNGYHGYGMKSMLHTIQKYEGHLTTEVKNGCFYFNVMLPLERDSNKK | not soluble
3 | MSLFKEERTMTNYTVDTLNLGKFITESGEVIDNLRLRYEHVGYHGQPLVVVCHALTGNHLTYGTDDYPGWWREIIDGGYIPIHDYQFLTFDVIGSPFGSSSPLNDPHFPKKLTLRDIVRANERGIQALGYDKINILIGGSLGGMQAMELLYNQQFEVDKAIILAATSRTSSYSRAFNEIARQAIHLGGKEGLSIARQLGFLTYRSSKSYDERFTPDEVVAYQQHQGNKFKEHFDLNCYLTLLDVLDSHNIDRGRTDVTHIFKNLETKVLTMGFIDDLLYPDDQVRALGERFKYHRHFFVPDNVGHDGFLLNFSTWAPNLYHFLNLKHFKRKEGHHHHHH | soluble
4 | MWYGLGLAFLGGIFRIFPFDMEHTITRQIFCPWLFAFSMTRKQFQGRKPYNYLASFLLFQCRLKESFHGQLVKPIVSWNLWTHRYHNGCFR | not soluble
5 | MIVPYSVEDILKDGCFLERAEIDRLLDRLRTKKNLILQGPPGTGKTWLAKRLAFALMGQKDDSKVRAVQFHPNLSYEDFVRGWRPTGEGKLSLADGVFMEAIKAASKDPSSKFVVVIEEINRGNPAQIFGELLTLLEAGKRTPNEALELCYPDADGKRRPVHIPENLYVVGTMNIADRSLALVDLALRRRFAFVGLEPRLGQVWRDWVVKECAVDPLEHHHHHH | not soluble
6 | MGSDKIHHHHHHMKKLIAGVLVLTILGSCGNKKTNIDPFASITQEVDSIRHKADSIHQEELPEEPKPTEADESFDDFIYNFASDDALQRQRVKFPLPYYKGDEKTNIEERNWKHDDLFTKQHYYTLLFDKEEDMDLVGDTSLTSVQVEWIFVKTRMVKKYYFERIKGAWILEAINLRPVERNENEDFVEFFSHFAADSLFQSRRVQEPLAFVTSDPDDDFSILETSLDLNQWFAFKPALPTDRLSNINYGQRNDDNSPTKILALKGIGNGFSNILYFRRKAGEWQLYKFEDTSI | not soluble
7 | MGHHHHHHGSLVPRGSDVQELNSIIQRISKFDNILKDKTIINQQDLRQISWNGIPKIHRPVVWKLLIGYLPVNTKRQEGFLQRKRKEYRDSLKHTFSDQHSRDIPTWHQIEIDIPRTNPHIPLYQFKSVQNSLQRILYLWAIRHPASGYVQGINDLVTPFFETFLTEYLPPSQIDDVKIKDPSTYMVDEQITDLEADTFWCLTKLLEQITDNYIHGQPGILRQVKNLSQLVKRIDADLYNHFQNEHVEFIQFAFRWMNCLLMREFQMGTVIRMWDTYLSETSQEVTSSYSMSSNDIKPPVTPTEPRVASFVTPTKDFQSPTTALSNMTPNNAVEDSGKMRQSSLNEFHVFVCAAFLIKWSDQLMEMDFQETITFLQNPPTKDWTETDIEMLLSEAFIWQSLYKDATSHWL | soluble
8 | MKSMTGFGKKTIQNENYQLDIEVKSVNQRFLDIQLRMPKELNAYELVIRQVIKRTLKRGRVEVYVNLQKIGNNQKEVRVQWDLIDQLLTSVDQHLKEKYPEATFDAGDTVNHLLKQNDFVEIVEAEIVDQTFEPFLVQAFEAAIASLDQSRVQEGTQIKQVLLDYVAVLTQSIQELQAFVGVFEQEYRQRFEAKLNEWLGSQVDETRLLTEMAILLEKGDIHEELDRLDIHIDKLHQLLDETEPVGRELDFLIQEMNREVNTIGSKSSPIEIKNSVVQMKTTLEKIREQIQNVE | not soluble
9 | MGSDKIHHHHHHMRLTSREKEIFEVLKKEPLISQEELARRFNITRSSIAVHISNLMKKGVILGKGYVFNEQVSVVVIGESYYYIKTSGPDNDCSINMGLGGFAVDTGRIFANFGLNVKLITIVGNDEEGTNIFNELQGKGVDIVNIFRHAKKRSCRKVFLDDKRILEENFSLQDYEKAIDAREWVVFNCEWLVVDTRFQELLCHKAIGKDEEKLPFFCTCRYLYSIEEIPSFLSRYDLLVLGVADSNIMDHYLSQALALSSNGVQSVILSDGNTRLFYFQKGNAHEFPLLPNQCFDSQEGLPALLAGIVYGLSSGYSLRQAVRIAVGTAASND | not soluble
10 | MGSDKIHHHHHHENLYFQGMTEKSQEPTAALDAEQVAAYLSQHPEFFVEHDELIPELRIPHQPGDAVSLVERQVRLLRERNIEMRHRLSQLMDVARENDRLFDKTRRLVLDLLDATSLEDVVSTVEDSLRHEFQVPYVSLILFSDSSVSVGRSVSSAEAHQAIGGLLSGGKTVCGVLRPHELAFLFGESDRDEIGSAAVVSLSFQGLHGVLAIGSPDPQHYKSSLGTLFLGYVAEVLARVLPRFSSPLRSVR | soluble
11 | MAKRVFIGATGQNCGKTTMSVSLMHLARQKYDRVGFIKPIGPKIEGYNGLTVDMDAILMARTFGLEEDLPLMNPVSLHKNFTRDFLSGKLDCNVLKTKILEAFEILDKKYDFLIIEGAGHGGVGSVIGLSNACVAHTLNAPVIIVTDSGIGSSIDAVHLNLALYEKEDADVRMLLVNKLRADKRESILSFLGKGFPGRPLKISGGFNYSPILANPTLSHIGKLLNLPVHGDPDGQSRIIHHIHLGAASAQRVVDALQESTLIVITSSRDELIVTLSSLYHIPAFREKIVGLVIAGHIPASEISQQILDDSNIPYIRVHDSTANVFTTLMEDVAKITAEDQEKLNWIRANAENEIDFEAIDALLLEHHHHHH | not soluble
12 | MSLMYGYPEKWLEGMTTGEGIAAELRLGIVNGHIAEGTLLTENQMAKQFNVSRSPIRDAFKLLQQNQLIQLERMGAHVLPFGEQEKKEMYDLRLMLESFAFSRVKNQERLPIVKEMKKQLEMMKVAVKFEDAESFTKHDFEFHETLIKASNHQYLNSFWSHLKPVMMALVLTSMRQRMQQNPQDFERIHHNHQVFIDAVEQYDSQILKEAFHLNFDDVGKDIEGFWLNEGHHHHHH | soluble
13 | MGRGRAKAKQTKVARELKYSSPQTDFQRLQRELSGTGTDRLDGDGPSDDDSWNDEDDWRR | not soluble
14 | MLLTCRFTAATSRLSACTRSFSIDFSHEKPAPHQLEHVTTRLTETVPLMFRRRMDYTFYRKDVVCDDQIFSVEKRGIEQLMSHFGMIGTLGQVFLPHVEMEMLSVAPVIDEGTVRCRWRVKYVSFTRIIMNPRLLRFDYRMQNLSWFDGYSVLTVDGNGEVYKVTLQKMQQDEQKSLLTSTTEKLKEKLAPSAANN | not soluble
15 | MTDFFRFPNTPHLLWLGQGQPRDDKILSDAEIAALLQDEVLIEEKLDGANLGISLDEHGELRAQNRGQYLPQPFSGQFSRLNSWLGQHGEILKHTLTPEMILFGEWCAARHSLDYNKLPDWFLLFDVYDREAGKFWSVERRNQLAQKLNITTVPLLKRTKITCNQLVQLLDDAQSRYRSGKVEGIVIRCDSPLWCESRAKLVNREFVQAIEDHWRSRSIEWNLVHAGSVKRS | not soluble
16 | MGSDKIHHHHHHACDDNKDEFLDEFSTILSFRNCDEIEVEVYNTGENGEYQLIVNKSGAQLGTVTRASIDVMDKALLEIYNEQNGKDYQLYPEDCYVFNGDKQIEFGPNDTYQTRSVTLITDKILESNQQEGNFVIPFILQNSADSINAERKYVFLKPAVIVPNVAFEKTGYNLNIISDAMDANEIELNLPAVFSVDNKWNFSCTLEPDESLLTEYNEKNGVDYTMLSEEAYTLSNEGKILFTAGSKSASLTVTVKRNKLSYGNYVLPLKMTQCSSPYFEINPNKQSCLFGISYVPDESKLHPVTLSRGMTAIHPNREVEGKIDYMFDGNPDTYYHSDYLEEPGLPHWIQLNLDEPHTALMFEYQVRHNNNNGAPQRISVLGSMDGITFSKIMTIMEGFPTATKGTYKSPVLVGKEFKHIRLVVESTPAGNSFALAELKLHVN | not soluble
17 | MGSDKIHHHHHHMLLILDEYFKEHPIKLRIVDGLYTSGISIRNGRFFTNDVEISVSEIASAFNVNRKTVYETIKLVESNDSLRRVMSSIKPMADIADVALLTGNQIITAYTTLGHFPYVFKEIFNTISKYGCYIREVFSRNMSQEESFIRIIFYRPIPDRIIGQIRKIDGVKSLEVRVNMDTDQILCNNCDIKICPTKYISDVEKEELGDL | not soluble
18 | MSYNNSYDVIILAGGLSKRFGADKCCFEVNSKTMLDRLLEQFDNPIVVSRSPRRIKKGILVIEKGEYEGPVKGVREGLKYVRRDRVFITGCDFPFLIKNLVDYVCSKPYDIVIPFDHRPQPLLACYSTELLNKNIDKINGLVELIELSSSVYFIGTEELLKIDPFLYSLININSIIDLIYRPIRIKTKSNFILRLEHHHHHH | not soluble
19 | MTIWEISEKADYIAQRHRRLQDQWHIYCNSLVQGITLSKARLHHAMSCAPDKELCFVLFEHFRIYVTLADGFNSHTIEYYVETKDGEDKQRIAQAQLSIDGMIDGKVNIRDREQVLEHYLEKIAGVYDSLYTAIENNVPVNLSQLVKGQSPAA | soluble
20 | MSLTDNLVRVVCVSDTHNTKPNLPDGDILIHAGDLTESGTKEELEKQIYWLDSQPHRYKIVIAGNHETFLDRNYHSHHGNERVTMDWKSLIYLENTSAILDLGAGHQLKVFGSPYTPKHGNGAFQYPRTDTTTWEEIPKDTDLLVTHGPPKAHLDLGHLGCRVLRQALWEMESRPLLHVFGHIHGGYGKEEGHHHHHH | soluble
21 | MTKEEIIKPENLVYKKPTLMNDNPMHYCPGCSHGVVHKLIAEVIEEMGMEDKAIGVSPVGCAVFAYNYLDIDWQEAAHGRAPAVATAIKRLWPGRLVFTYQGDGDLACIGTAETIHALNRGENITIIFINNAIYGMTGGQMAPTTLVGMKTATCPYGRDVAIHGYPLKMTEIAATLEGTAYVTRQAVHTVPAIRKAKKAIRKAFENSMNGKGSNLVEIVSTCNSGWKMTPQASNDWMVEHMFPFYPLGDLKDKE | not soluble
22 | MIKKWLSVALISTAAMMPHTTFASDTLLQKAQQENRQQQTHNASRESGFKKTEQELQAIKNKLVAERAALQAEADTLSVTFSENEAELAQLEEKLRLETGSLGELFGVVRQNAKELESELKHAVTGVDANSYQKDIEAIVAAKSLPTLKQLQAMWRSMEEQVTASGELAKVSFTLLDGEGKEQTVNGVRLGAMALLDDNGYVKWNGQRGDAVNYLRQPENGPTASAFTNGELDSLVIDPSRGILLEQLANSPTLKDRLNAGGVVGQ | not soluble
23 | MGKEYHVAVVGATGAVGTRMIELLAETSLPIASVRLLASKRSAGQEIQFKGQPLIVEELVPESFEGIDLALFSAGGSISEKFAPEAVKRGAVVVDNTSHFRMAKDVPLVVPEVNPEALKNHQGIIANPNCSTIQMMVALEPIRQAFGLERIIVSTYQAVSGAGIRAINELKEQAEDFLEGKPVSEWSAEILPAGSDEKHYPIAFNALPQIDVFSEAGYTYEEWKMMNETKKIMGDNKLKVVATCVRIPVISGHSESVYIEVKQADASVSAIQELMAQAPGVILQDEPSEQLYPQALNSVNQKETFVGRIRQDVDVKNGFHLWIVSDNLLKGAAWNSVQIAETLHEMNLLRVPEND | not soluble
